Assay results as given in article PMC4119751 (Biochemistry, 2013).
Residue numbers refer to the chain shown, from its start. Where two headings read alike, the source gives them in different places. Bridge positions count the residues as written; N and C are the ends. Ends that are not written are not given here.

Assays:
[1] = biological target: V3_(MNCYCLIC) 14mer peptide … (HIV-1 strain MN); assay: ITC
[2] = biological target: Env of HIV-1 SF162 on pseudovirus (HIV-1 strain SF162)
wild type Fv 447–52D = assay: ITC, V3 peptide variants titrated into wild type Fv 447–52D; format: binding, human; settings: linear and cyclic V3 with wild type Fv, ITC 25 °C
[3] = biological target: T1, 14-mer V3 peptide KRIHIGPGRAFYTT (MN sequence) (HIV-1 strain MN, V3 crown (peptide)); assay: ITC
T1 chain: KRIHIGPGRAFYTT

[4] = biological target: T1, 14-mer V3 peptide KRIHIGPGRAFYTT (MN …); assay: ITC
[5] = biological target: T1, 14-mer V3 peptide KRIHIGPGRAFYTT (MN …); assay: ITC
[6] = biological target: T2, V3 peptide with Arg^315Gln mutation KRIHIGPGQAFYTT (HIV-1 strain MN, V3 crown, Arg315Gln …, point mutant); assay: ITC
T2 chain: KRIHIGPGQAFYTT

SF162 pseudovirus = assay: TZM-bl neutralization assay against SF162 pseudovirus; format: cell-based, HIV-1; settings: Fv mutant vs wild type Fv

**Q.** Fv 447–52D wild type was tested. Which Kd [1] did it give?
**A.** 16 nM

**Q.** What about the IC50 of neutralisation of SF162 pseudovirus, TZM-bl cells (luciferase) [2] of the same molecule?
**A.** 19 µM

**Q.** For “CRIHIGPGRAFYTC (disulfide 1-14 (inferred)) [V3 Cyclic]”, which “effect of cyclization on affinity (in words)” value (wild type Fv 447–52D) is on record?
**A.** cyclization of the V3 crown did not affect much of its interaction with mAb 447–52D

B1: Fv 447–52D Tyr^H100JThr (other, human)
VH: EVQLVESGGGLVKPGGSLRLTCVASGFTFSDVWLNWVRQAPGKGLEWVGRIKSRTDGGTTDYAASVKGRFTISRDDSKNTLYLQMNSLKTEDTAVYSCTTDGFIMIRGVSEDYYYTYMDVWGKGTTVTVSS
VL: QSVLTQPPSVSAAPGQKVTISCSGSSSNIGNNYVLWYQQFPGTAPKLLIYGNNKRPSGIPDRFSGSKSGTSATLGITGLQTGDEADYFCATWDSGLSADWVFGGGTKLTVL
**Q.** How did the other [3] turn out when B1 was run?
**A.** 3.3 kcal/mol

**Q.** And the Kd [4]?
**A.** 1300 nM

**Q.** What about the IC50 of neutralisation of SF162 pseudovirus, TZM-bl cells (luciferase) [2] of the same molecule?
**A.** 23 µM

B2: Fv 447–52D Trp^L96Ala (other, human)
VH: B1 VH with T116Y
VL: B1 VL with W100A
**Q.** What does the source list for B2?
**A.** other [3]: 1.22 kcal/mol; IC50 of neutralisation of SF162 pseudovirus, TZM-bl cells (luciferase) [2]: 50 µM; Kd [5]: 1.8 µM

B3: Fv 447–52D Asp^H95Asn (other, human)
VH: B1 VH with D101N, T116Y
VL: B1 VL
**Q.** B3 was tested. Which other [3] did it give?
**A.** 5.04 kcal/mol

**Q.** What about the Kd [4] of the same molecule?
**A.** 3900 nM

**Q.** And the IC50 of neutralisation of SF162 pseudovirus, TZM-bl cells (luciferase) [2]?
**A.** 41 µM

B4: Fv 447–52D Trp^H33Ala (other, human)
VH: B1 VH with W33A, T116Y
VL: B1 VL
**Q.** How did the other [3] turn out when B4 was run?
**A.** 4.02 kcal/mol

**Q.** What about the Kd [4] of the same molecule?
**A.** 3900 nM

**Q.** And the IC50 of neutralisation of SF162 pseudovirus, TZM-bl cells (luciferase) [2]?
**A.** 68 µM

B5: Fv 447–52D wild type (other, human)
VH: B1 VH with T116Y
VL: B1 VL
**Q.** Which dH [3] does the source give for B5 here?
**A.** -8.54 kcal/mol

**Q.** And the Kd [4]?
**A.** 23 nM

**Q.** And the Kd [6]?
**A.** 5.1 µM

B6: Fv 447–52D Trp^L91Ala (other, human)
VH: B1 VH with T116Y
VL: B1 VL with W92A
**Q.** Which results are given for B6?
**A.** other [3]: 4.72 kcal/mol; IC50 of neutralisation of SF162 pseudovirus, TZM-bl cells (luciferase) [2]: 76 µM; Kd [5]: 5.4 µM; fold decrease in neutralization capability (SF162 pseudovirus): 4.0 fold
